# From patent US20050064384A1 (published 2005)
# T1: FLAG-tagged GCK (human, UniProt Q12851 1-820)
# T1 sequence: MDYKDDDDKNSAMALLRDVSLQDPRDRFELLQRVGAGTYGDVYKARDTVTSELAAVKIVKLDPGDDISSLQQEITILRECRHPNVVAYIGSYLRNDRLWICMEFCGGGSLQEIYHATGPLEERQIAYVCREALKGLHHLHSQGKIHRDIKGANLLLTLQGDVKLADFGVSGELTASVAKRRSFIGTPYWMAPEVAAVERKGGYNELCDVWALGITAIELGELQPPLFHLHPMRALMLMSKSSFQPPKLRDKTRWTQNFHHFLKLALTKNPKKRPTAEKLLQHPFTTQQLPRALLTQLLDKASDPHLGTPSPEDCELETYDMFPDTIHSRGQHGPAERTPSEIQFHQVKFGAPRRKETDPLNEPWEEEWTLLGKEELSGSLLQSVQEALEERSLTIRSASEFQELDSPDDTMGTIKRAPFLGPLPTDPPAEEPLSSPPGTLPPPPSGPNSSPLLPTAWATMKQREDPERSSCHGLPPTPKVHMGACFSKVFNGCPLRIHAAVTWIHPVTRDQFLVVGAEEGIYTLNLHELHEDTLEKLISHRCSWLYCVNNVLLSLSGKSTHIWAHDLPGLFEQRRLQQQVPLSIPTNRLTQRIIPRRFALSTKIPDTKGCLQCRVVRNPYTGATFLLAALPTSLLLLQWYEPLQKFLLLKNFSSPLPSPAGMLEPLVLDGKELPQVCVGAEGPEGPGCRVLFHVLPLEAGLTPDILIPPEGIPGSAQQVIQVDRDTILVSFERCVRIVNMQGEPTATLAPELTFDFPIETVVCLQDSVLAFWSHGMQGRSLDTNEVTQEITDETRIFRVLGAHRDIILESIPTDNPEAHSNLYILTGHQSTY
# T2: FLAG-tagged wild type (wt) MST1 (mouse, UniProt Q9JI11 1-487)
# T2 construct: also called FLAG-MST1; full-length MST1
# T2 sequence: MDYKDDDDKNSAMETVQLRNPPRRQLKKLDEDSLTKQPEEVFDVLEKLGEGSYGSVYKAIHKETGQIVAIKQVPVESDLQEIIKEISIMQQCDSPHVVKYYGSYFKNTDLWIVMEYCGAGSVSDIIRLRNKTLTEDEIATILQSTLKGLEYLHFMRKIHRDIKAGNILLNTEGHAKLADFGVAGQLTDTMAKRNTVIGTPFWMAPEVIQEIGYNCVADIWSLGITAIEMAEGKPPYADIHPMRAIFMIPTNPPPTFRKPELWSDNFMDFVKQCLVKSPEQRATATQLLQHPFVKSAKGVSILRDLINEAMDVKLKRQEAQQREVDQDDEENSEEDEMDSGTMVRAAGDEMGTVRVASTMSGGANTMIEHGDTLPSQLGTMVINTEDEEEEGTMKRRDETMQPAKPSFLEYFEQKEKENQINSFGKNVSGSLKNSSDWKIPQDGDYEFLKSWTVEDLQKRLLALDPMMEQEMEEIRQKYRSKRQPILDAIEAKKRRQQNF
# B1: GST-NORE (7-413) (other, not shown: a dimerising Fc or GST)
# chain: GQRPYPLLLDPEPPRYLQSLGGTEPPPPARPRRCIPTALIPAAGASEDRGGRRSGRRDPEPTPRDCRHARPVRPGLQPRLRLRPGSHRPRDVRSIFEQPQDPRVLAERGEGHRFVELALRGGPGWCDLCGREVLRQALRCANCKFTCHSECRSLIQLDCRQKGGPALDRRSPGSTLTPTLNQNVCKAVEETQHPPTIQEIKQKIDSYNSREKHCLGMKLSEDGTYTGFIKVHLKLRRPVTVPAGSGPSPSMDAIKEVNPAATTDKRTSFYLPLDAIKQLHISSTTTVSEVIQGLLKKFMVVDNPQKFALFKRIHKDGQVLFQKLSIADYPLYLRLLAGPDTDVLSFVLKENETGEVEWDAFSIPELQNFLTILEKEEQDKIHQLQKKYNKFRQKLEEALRESQGKPG
# B2: HA-NORE1 (other)
# chain: MYPYDVPDYAMASPAIGQRPYPLLLDPEPPRYLQSLGGTEPPPPARPRRCIPTALIPAAGASEDRGGRRSGRRDPEPTPRDCRHARPVRPGLQPRLRLRPGSHRPRDVRSIFEQPQDPRVLAERGEGHRFVELALRGGPGWCDLCGREVLRQALRCANCKFTCHSECRSLIQLDCRQKGGPALDRRSPGSTLTPTLNQNVCKAVEETQHPPTIQEIKQKIDSYNSREKHCLGMKLSEDGTYTGFIKVHLKLRRPVTVPAGSGPSPSMDAIKEVNPAATTDKRTSFYLPLDAIKQLHISSTTTVSEVIQGLLKKFMVVDNPQKFALFKRIHKDGQVLFQKLSIADYPLYLRLLAGPDTDVLSFVLKENETGEVEWDAFSIPELQNFLTILEKEEQDKIHQLQKKYNKFRQKLEEALRESQGKPG
# notes: also called recombinant hemagglutinin (HA)-tagged NORE fusion polypeptide
# What was measured:
# FLAG-tagged Ha-RasG12V = target: T3, FLAG-tagged Ha-RasG12V (human, UniProt P01112 1-189); assay: in vitro binding of FLAG-Ras from HEK293 extracts to GST fusion protein immobilized on GSH-agarose, anti-FLAG immunoblot
# T3 construct: also called FLAG-V12RAS; FLAG Ha-RasG12V
# Source text: (§1) Aliquots of extracts from these cells (as shown in the center panel) were adsorbed to the immobilized GST proteins; the beads were washed extensively and eluted with SDS.
# FLAG-tagged Ki-RasG12V = target: T4, FLAG-tagged Ki-RasG12V (Meleagris gallopavo (Wild turkey), UniProt P79800 1-188); assay: as above
# T4 construct: also called FLAG Ki-RasG12V
# Source text: as §1
# FLAG-tagged GCK = target: T1, FLAG-tagged GCK; assay: anti-FLAG immunoprecipitation from co-transfected HEK293 cells, anti-HA immunoblot
# Description: (§2) FLAG-tagged proteins were immunopreciptated with anti-FLAG M2-agarose, eluted with the excess of the FLAG peptide. The eluates were analyzed by immunoblotting after SDS-PAGE. Upper panel: proteins immunoprecipitated (IP) by FLAG-agarose probed with anti-HA antibody 12CA5 (α-HA). Middle panel: cell extracts probed with anti-FLAG antibody (α-FLAG).
# FLAG-tagged SOK = target: T5, FLAG-tagged SOK (human, UniProt O00506 1-426); assay: as above
# T5 construct: also called SOK1
# Description: as §2
# [1] = target: T2, FLAG-tagged wild type (wt) MST1; assay: anti-FLAG immunoprecipitation from co-transfected HEK293 cells, FLAG peptide elution, anti-HA immunoblot
# Description: as §2
# T5 sequence (O00506 other isoform, or with tags, fused parts or gaps limits assumed): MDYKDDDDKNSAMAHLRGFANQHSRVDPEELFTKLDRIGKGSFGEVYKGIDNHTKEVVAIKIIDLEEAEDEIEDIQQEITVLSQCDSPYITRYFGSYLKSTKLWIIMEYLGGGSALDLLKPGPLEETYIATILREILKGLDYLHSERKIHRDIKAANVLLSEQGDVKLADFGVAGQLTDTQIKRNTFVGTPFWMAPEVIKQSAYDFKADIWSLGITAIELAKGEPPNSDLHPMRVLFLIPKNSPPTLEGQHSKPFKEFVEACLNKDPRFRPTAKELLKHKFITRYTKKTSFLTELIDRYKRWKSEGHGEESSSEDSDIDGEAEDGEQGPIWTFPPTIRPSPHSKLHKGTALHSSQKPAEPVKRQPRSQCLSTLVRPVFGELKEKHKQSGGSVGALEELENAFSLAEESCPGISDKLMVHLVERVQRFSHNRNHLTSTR
Binder,binding result (FLAG-tagged Ha-RasG12V),binding result (FLAG-tagged Ki-RasG12V),binding result (FLAG-tagged GCK),binding result (FLAG-tagged SOK),binding result [1]
B1,binds,binds,–,–,–
B2,–,–,no binding,no binding,binds
